According to patent US20110065647A1 (BIOSEARCH 2007, published 2011):
Ends that are not written are not given here.

How the values were obtained:
[1] = target: rNaV1.3 channels (rat, UniProt P08104 1-1951); experiment: cell-based or functional assay
[2] = target: rNaV1.8 channels (rat, UniProt Q62968 1-1956); experiment: cell-based or functional assay
rNaV1.8 channels, sequence (Q62968 whole entry): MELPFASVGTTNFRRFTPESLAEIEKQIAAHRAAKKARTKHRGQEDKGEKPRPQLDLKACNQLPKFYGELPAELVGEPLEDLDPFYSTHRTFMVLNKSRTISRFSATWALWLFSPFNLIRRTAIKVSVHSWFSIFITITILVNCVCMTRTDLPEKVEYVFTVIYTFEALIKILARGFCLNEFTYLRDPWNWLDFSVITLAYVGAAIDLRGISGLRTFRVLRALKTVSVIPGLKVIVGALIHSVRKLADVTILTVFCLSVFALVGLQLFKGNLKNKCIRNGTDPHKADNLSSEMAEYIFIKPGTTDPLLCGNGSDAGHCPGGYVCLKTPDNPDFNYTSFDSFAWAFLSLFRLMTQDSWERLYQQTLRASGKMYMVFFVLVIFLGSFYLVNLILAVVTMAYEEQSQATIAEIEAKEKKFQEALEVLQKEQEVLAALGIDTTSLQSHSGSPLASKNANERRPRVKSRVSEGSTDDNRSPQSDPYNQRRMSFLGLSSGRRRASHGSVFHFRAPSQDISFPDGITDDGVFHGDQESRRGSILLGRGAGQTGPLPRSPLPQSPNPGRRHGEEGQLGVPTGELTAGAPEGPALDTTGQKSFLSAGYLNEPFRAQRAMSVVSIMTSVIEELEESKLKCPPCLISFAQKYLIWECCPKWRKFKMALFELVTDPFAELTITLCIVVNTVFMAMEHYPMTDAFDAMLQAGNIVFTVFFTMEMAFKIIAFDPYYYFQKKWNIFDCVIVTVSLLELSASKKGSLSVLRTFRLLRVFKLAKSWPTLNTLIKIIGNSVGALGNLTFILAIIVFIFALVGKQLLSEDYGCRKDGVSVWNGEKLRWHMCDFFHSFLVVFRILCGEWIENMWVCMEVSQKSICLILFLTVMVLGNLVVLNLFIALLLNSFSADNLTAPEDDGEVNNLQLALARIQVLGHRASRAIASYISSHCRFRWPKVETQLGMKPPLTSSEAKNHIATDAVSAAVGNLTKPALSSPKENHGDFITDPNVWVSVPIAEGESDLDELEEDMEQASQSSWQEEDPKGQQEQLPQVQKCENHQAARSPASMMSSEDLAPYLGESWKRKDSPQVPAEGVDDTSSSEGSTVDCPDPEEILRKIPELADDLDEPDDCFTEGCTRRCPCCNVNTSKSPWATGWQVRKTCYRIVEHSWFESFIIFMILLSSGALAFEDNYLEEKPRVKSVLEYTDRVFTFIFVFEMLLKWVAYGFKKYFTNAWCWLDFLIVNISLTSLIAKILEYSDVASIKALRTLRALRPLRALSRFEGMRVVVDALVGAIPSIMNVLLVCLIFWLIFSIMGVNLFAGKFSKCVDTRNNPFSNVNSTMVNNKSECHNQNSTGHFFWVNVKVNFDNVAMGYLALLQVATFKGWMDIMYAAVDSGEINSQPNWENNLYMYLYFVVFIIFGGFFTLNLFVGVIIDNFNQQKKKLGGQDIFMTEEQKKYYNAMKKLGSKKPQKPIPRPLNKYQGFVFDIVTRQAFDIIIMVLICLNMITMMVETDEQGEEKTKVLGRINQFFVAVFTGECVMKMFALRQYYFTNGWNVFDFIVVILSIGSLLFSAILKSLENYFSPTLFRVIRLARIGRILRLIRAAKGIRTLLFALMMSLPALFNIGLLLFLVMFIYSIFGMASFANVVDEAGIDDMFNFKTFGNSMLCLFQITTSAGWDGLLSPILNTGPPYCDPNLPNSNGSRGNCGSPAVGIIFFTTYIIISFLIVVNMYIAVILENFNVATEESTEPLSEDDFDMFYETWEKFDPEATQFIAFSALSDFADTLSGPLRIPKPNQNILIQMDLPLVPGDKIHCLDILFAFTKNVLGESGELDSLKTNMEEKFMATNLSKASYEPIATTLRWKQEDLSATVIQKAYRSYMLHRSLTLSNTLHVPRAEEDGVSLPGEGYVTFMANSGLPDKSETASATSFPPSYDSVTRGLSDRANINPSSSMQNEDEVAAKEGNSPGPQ

rNaV1.3 channels, sequence (P08104 whole entry): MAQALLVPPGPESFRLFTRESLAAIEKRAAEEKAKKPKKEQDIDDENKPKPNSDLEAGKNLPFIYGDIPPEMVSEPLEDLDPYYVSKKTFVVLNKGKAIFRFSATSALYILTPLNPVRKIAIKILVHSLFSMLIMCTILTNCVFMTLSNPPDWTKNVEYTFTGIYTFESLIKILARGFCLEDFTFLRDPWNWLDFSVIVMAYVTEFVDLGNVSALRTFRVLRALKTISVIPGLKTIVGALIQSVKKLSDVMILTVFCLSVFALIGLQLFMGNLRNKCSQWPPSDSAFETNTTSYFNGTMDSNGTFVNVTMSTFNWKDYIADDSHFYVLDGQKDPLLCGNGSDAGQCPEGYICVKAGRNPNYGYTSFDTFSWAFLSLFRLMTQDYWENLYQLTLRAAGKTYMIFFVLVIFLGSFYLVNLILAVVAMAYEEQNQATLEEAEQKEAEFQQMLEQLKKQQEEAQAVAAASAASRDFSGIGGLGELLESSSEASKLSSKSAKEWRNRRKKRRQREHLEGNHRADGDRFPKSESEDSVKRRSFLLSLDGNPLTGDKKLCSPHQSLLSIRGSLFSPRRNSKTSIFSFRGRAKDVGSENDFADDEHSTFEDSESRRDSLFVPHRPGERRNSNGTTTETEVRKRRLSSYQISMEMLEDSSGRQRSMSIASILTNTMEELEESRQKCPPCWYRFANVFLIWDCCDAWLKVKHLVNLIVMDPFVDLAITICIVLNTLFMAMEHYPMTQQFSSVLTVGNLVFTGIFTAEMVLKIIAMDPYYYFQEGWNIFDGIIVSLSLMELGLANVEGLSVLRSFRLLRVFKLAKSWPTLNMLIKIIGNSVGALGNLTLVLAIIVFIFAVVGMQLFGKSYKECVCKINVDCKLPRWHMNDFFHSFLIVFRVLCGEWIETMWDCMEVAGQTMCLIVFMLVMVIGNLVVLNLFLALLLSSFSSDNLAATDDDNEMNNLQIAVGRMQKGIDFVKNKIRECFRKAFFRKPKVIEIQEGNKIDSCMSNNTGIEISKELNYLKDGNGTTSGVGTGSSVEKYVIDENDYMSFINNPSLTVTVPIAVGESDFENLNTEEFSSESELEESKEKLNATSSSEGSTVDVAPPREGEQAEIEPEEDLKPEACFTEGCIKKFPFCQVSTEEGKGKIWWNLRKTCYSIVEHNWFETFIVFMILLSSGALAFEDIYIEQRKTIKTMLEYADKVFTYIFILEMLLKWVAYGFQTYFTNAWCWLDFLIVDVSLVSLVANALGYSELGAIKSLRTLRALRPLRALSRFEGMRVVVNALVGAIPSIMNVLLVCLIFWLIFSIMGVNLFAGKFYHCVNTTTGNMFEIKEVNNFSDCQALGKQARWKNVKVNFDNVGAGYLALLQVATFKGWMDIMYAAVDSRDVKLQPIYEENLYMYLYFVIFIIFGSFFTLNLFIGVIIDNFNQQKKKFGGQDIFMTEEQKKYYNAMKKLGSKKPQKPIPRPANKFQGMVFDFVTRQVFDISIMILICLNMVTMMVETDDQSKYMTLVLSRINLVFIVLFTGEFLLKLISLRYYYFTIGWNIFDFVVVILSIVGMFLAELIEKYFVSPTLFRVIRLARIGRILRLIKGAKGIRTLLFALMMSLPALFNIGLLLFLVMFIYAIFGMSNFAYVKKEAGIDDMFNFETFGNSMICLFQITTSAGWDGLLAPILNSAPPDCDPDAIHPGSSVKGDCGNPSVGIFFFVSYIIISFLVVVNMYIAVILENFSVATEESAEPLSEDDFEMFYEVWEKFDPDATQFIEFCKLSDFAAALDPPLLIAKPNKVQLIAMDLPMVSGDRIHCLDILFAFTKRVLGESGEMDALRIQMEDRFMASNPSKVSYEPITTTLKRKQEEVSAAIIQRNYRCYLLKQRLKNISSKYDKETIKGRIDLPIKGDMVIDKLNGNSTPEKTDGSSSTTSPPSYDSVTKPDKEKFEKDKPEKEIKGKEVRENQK

Binder	IC50 Nav1.3 (µM); inhibition of channel current, patch clamp [1] [µM]	IC50 Nav1.8 (µM); inhibition of channel current, patch clamp [2] [µM]
YCQEFLWTCDEERKCCGDMVCRLWCKKRL-NH2 (disulfide (positions not given here); not fully specified (bridges); also: three disulphide bridges, probably C1-C4, C2-C5, C3-C6) [Peptide B]	0.23	
DDCLGMFSSCDPDNDKCCEGRKCNRKDKWCKYVL-NH2 (disulfide (positions not given here); not fully specified (bridges); also: three disulphide bridges, probably C1-C4, C2-C5, C3-C6) [Peptide A]	1.75	2.5
ACLGFGEKCNPSNDKCCKSSSLVCSQKHKWCKYGW (disulfide (positions not given here); not fully specified (bridges); also: three disulphide bridges, probably C1-C4, C2-C5, C3-C6) [Peptide C]	1.2	
DCLGWFKGCDPDNDKCCEGYKCNRRDKWCKYKLW (disulfide (positions not given here); not fully specified (bridges); also: three disulphide bridges, probably C1-C4, C2-C5, C3-C6) [Peptide F]	0.13	0.17
